Data reported in US20040058857A1, “Method of treating cancer” (priority 2003, published 2004).
Numbered stars: 1 amine (or outer) side, 2 acyl side, 3 side chain; on linkers, the order of the positions; unused ones are H or OH. Square brackets hold non-standard residues; d marks the D form. Peptide text beside a SMILES is read from it. * marks the point of attachment. X1 = COc1cccc2c1C(=O)c1c(O)c3c(c(O)c1C2=O)C[C@@](O)(C(=O)CO)C[C@@H]3OC1CC(N*)C(O)C(C)O1; Glutaryl = O=C(CCCC(=O)[*:2])[*:1]; Hyp = O=C(O)[C@@H]1C[C@@H](O)CN1; Chg = N[C@H](C(=O)O)C1CCCCC1

Assays:
[1] = human, in vivo
Procedure: (§1) Compound B (as described in Example 2) is a peptide conjugate of doxorubicin (Dox) that is cleaved by PSA at prostate tumor cells to leucine-dox (Leu-dox) and Dox. Thirty-three patients with advanced hormone refractory prostate cancer were treated with Compound B. Nineteen patients were initially treated at escalating dose levels of 20 (n=1), 40 (n=3), 80 (n=4), 160 (n=2), 225 (n=6), and 315 mg/m^2 (n=2) in the phase I portion of the trial. An additional 14 patients were treated with 225 mg/m^2 with prednisone.

[2] = Clinical trial of Compound B: tolerability and dose limiting toxicity
Procedure: as §1

[3] = clinical; conditions: male, human, in vivo, 225 mg/m2
Procedure: as §1

[4] = human, in vivo; remark: listed apart in the source
Procedure: as §1

Structure (SMILES) | metabolism in PK studies [1] | patients with dose limiting neutropenia ([2]; 315 mg/m^2 dose level) | tolerability ([2]; 33 patients with advanced hormone refractory prostate cancer) | recommended phase II dose ([2]; phase I dose escalation 20-315 mg/m^2) | AUC [3] | patients experiencing grade 3 fatigue [4] | mean AUC ([1]; 225 mg/m2)
COc1cccc2c1C(=O)c1c(O)c3c(c(O)c1C2=O)C[C@@](O)(C(=O)CO)C[C@@H]3OC1CC(NC(=O)[C@H](CC(C)C)NC(=O)[C@H](CO)NC(=O)[C@H](CCC(N)=O)NC(=O)[C@@H](NC(=O)[C@H](CO)NC(=O)[C@H](C)NC(=O)[C@@H]2C[C@@H](O)CN2C(=O)CCCC(=O)O)C2CCCCC2)C(O)C(C)O1 (stereo partly drawn) [Compound B, [N-Glutaryl-(4-trans-L-Hyp)]-Ala-Ser-Chg-Gln-Ser-Leu-Dox] (Glutaryl-[Hyp]AS[Chg]QSL-X1; N-terminus and C-terminus assumed) | metabolized to Leu-dox and Dox | 2 patients | generally well tolerated | 225 mg/m^2 | 6 µM·h | two | –
COc1cccc2c1C(=O)c1c(O)c3c(c(O)c1C2=O)C[C@@](O)(C(=O)CO)C[C@@H]3O[C@H]1C[C@H](NC(=O)[C@@H](N)CC(C)C)[C@H](O)[C@H](C)O1 [Leu-Dox, leucine-dox] | – | – | – | – | – | – | 4 µM·h
